Test results: publication PMC5760103, “The translesion DNA polymerases Pol ζ and Rev1 are activated independently of PCNA ubiquitination upon UV radiation in mutants of DNA polymerase δ” (PLoS Genetics, 2017)

T1: Recombinant S. cerevisiae PCNA with an His-Tag (S. cerevisiae, UniProt P15873 1-258)
T1 construct: PCNA (proliferating cell nuclear antigen, gene POL30), S. cerevisiae; also called purified PCNA; source: E. coli (pET28c), purified on a HisTrap column
T1 sequence (looked up): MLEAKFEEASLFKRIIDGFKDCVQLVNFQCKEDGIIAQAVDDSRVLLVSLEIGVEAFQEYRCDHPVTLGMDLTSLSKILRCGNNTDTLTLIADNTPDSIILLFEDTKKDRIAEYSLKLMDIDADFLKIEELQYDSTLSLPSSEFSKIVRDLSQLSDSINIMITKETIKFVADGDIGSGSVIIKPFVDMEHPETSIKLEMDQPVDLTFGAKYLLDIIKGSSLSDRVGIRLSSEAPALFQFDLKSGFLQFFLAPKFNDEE


Biological target: T1, Recombinant S. cerevisiae PCNA with an …
Assay: ITC; VP-ITC; 20–25 μM PCNA in the cell, 270 μM peptide in the syringe; 30°C; buffer T (20 mM Tris pH 7.5, 50 mM NaCl, 20 mM β-mercaptoethanol); single set of independent binding sites model
Conditions: both partners purified

| Binder | Kd [nM] | dH [kcal/mol] |
| --- | --- | --- |
| QKKMKQSSLLSFFSKQVPSGTP (Msh6, S. cerevisiae, residues 22-43 with the canonical PIP motif; also called Msh6 peptide; canonical PIP motif of Msh6; source: synthetic peptide, bought: Genecust, 95% purity) [pMsh6 22–43] | 310 | -6.4 |
| KSLFDKSLESYFNGSNKEILN (Pol31 (B subunit of DNA polymerase delta), S. cerevisiae, residues 317-337 with the proposed motif LxxYF; also called Pol31 peptide; non-canonical Pol31 PIP motif peptide; source: synthetic peptide, bought: Genecust, 95% purity) [pPol31 317–337] | > 50000 |  |
| KRLKKQGTLESFFKRKAK (Pol32 (C subunit of DNA polymerase delta), S. cerevisiae, residues 333-350 (the C-terminal end; K is the last residue of Pol32) with the PIP motif QxxLxxFF; also called Pol32 peptide; Pol32 PIP motif peptide; source: synthetic peptide, bought: Genecust, 95% purity) [pPol32 333–350] | 460 | -4.45 |
